The text below walks through data of patent publication US20100143365A1.

For experiment [1], the target named is human fibrillar Aβ42 (human) (UniProt P05067). The experiment in a line: ELISA, Aβ fibrils.
The target of experiment [2] is lysozyme Gallus gallus fibrils (Gallus gallus) (UniProt P00698). Briefly: ELISA, lysozyme fibrils. A general note: In an ELISA, binding on a coated surface is turned into a signal by an enzyme label.
Chain of UniProt P00698 (P00698 other isoform, or with tags, fused parts or gaps limits assumed): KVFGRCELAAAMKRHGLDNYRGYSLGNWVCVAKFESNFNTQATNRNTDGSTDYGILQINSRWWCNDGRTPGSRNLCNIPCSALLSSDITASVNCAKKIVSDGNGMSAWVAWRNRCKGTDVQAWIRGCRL

Chain of UniProt P05067 (P05067 672-713 limits assumed): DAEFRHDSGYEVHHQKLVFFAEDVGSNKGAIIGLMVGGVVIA

B1: scFv21 (anti-amyloid scFv designated Pan 21′) (scFv)
scFv: DKLMAEVQLLESGGGLVQPGGSLRLSCAASGFTFSSYAMSWVRQAPGKGLEWVSSIQKSGEKTHYADSVKGRFTISRDNSKNTLYLQMNSLRAEDTAVYYCAKKRTLFDYWGQGTLVTVSSGGGGSGGGGSGGGGSTDIQMTQSPSSLSASVGDRVTITCRASQSISSYLNWYQQKPGKAPKLLIYRASYLQSGVPSRFSGSGSGTDFTLTISSLQPEDFATYYCQQSYSLPTTFGQGTKVEIKRAAAHHHHHHGAAEQKLISEEDLN
For B1, the OD Values in experiment [1] worked out at 0.011 OD; in experiment [2], 0.095 OD.
